Measurements as given in publication PMC5634487, “Structural basis for IL-1α recognition by a modified DNA aptamer that specifically inhibits IL-1α signaling” (Nature Communications, 2017).

B1: recombinant IL-1RI, extracellular domain (receptor, UniProt P14778 18-336, looked up)
chain: LEADKCKEREEKIILVSSANEIDVRPCPLNPNEHKGTITWYKDDSKTPVSTEQASRIHQHKEKLWFVPAKVEDSGHYYCVVRNSSYCLRIKISAKFVENEPNLCYNAQAIFKQKLPVAGDGGLVCPYMEFFKNENNELPKLQWYKDCKPLLLDNIHFSGVKDRLIVMNVAEKHRGNYTCHASYTYLGKQYPITRVIEFITLEENKPTRPVIVSPANETMEVDLGSQIQLICNVTGQLSDIAYWKWNGSVIDEDDPVLGEDYYSVENPANKRRSTLITVLNISEIESRFYKHPFTCFAKNTHGIDAAYIQLIYPVTNFQK
notes: interleukin-1 receptor type 1, extracellular domain; also called IL-1R1; IL-1 receptor; source: bought: R&D Systems
B2: recombinant IL-1RII, extracellular domain (receptor, UniProt P27930 14-343, looked up)
chain: FTLQPAAHTGAARSCRFRGRHYKREFRLEGEPVALRCPQVPYWLWASVSPRINLTWHKNDSARTVPGEEETRMWAQDGALWLLPALQEDSGTYVCTTRNASYCDKMSIELRVFENTDAFLPFISYPQILTLSTSGVLVCPDLSEFTRDKTDVKIQWYKDSLLLDKDNEKFLSVRGTTHLLVHDVALEDAGYYRCVLTFAHEGQQYNITRSIELRIKKKKEETIPVIISPLKTISASLGSRLTIPCKVFLGTGTPLTTMLWWTANDTHIESAYPGGRVTEGPRQEYSENNENYIEVPLIFDPVTREDLHMDFKCVVHNTLSFQTLRTTVKE
notes: interleukin-1 receptor type 2, extracellular domain; also called IL-1RI1 (as printed in the methods); source: bought: R&D Systems

Target: T1, human IL-1α, biotinylated (human, UniProt P01583 113-271, biotin (EZ-Link NHS-Peg4-Biotin, 10-fold molar excess; sites not stated))
T1 construct: interleukin-1 alpha (IL1A), human; crystallised); If it was the ProSpec protein, it may carry a His tag (surmised from the Talon beads); also called IL-1a; IL1F1; source: purified IL-1α protein, biotinylated with EZ-Link NHS-Peg4-Biotin
T1 sequence (looked up): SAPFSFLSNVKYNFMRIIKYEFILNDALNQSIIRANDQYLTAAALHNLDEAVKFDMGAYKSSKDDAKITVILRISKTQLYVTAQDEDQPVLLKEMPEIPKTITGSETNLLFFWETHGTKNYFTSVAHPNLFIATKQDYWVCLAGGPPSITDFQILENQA
Test: radioligand binding; competition: 32P-labelled aptamer SL1067 (~30 pM) and unlabelled receptor (10^-6 to 10^-11 M) with biotinylated IL-1α (2 nM) in SB18T buffer (40 mM HEPES pH 7.5, 102 mM NaCl, 5 mM KCl, 5 mM MgCl2, 0.01% Tween-20), 37 °C, 60 min; complexes captured on MyOne streptavidin resin and Durapore filter plates; one-site competition model
Details: both partners purified

Ki [nM] | Binder
21 | B1
290 | B2
